Laboratory results from the supplement of paper PMC10724198.
± gives the standard deviation of the averaged measurements.

System: Saccharomyces cerevisiae
Assay: protein stability index of tFT-peptide fusion (C-terminal peptide) (PSI (0-1 scale)); higher = more stable (slower turnover)
Details: genetic background: wild type; temperature: 30 C
Description: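 Multiplexed protein stability (MPS) profiling in S. cerevisiae. Random 12-aa peptides (tFT-X12 library) are fused to the C-terminus of a sfGFP-mCherry tandem fluorescent timer, after mCherry and a GGGS linker. Cells are FACS-sorted into 8 mCherry/sfGFP bins and deep-sequenced. The protein stability index (PSI) is the read-weighted bin average, scaled from 0 (unstable) to 1 (stable). Only peptides with >10 reads are reported; cells were grown at 30 °C in SC-His with glucose.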
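Further: PSI is a weighted mean of sequencing reads over stability bins, variants kept only with over 10 reads, mCherry proximal and sfGFP distal, peptide attached via GGGS linker.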

| Sequence | protein stability index |
| --- | --- |
| IQANLPLLTNQE | 0.6631 ± 0.0017 |
| IQDVGLKRLARV | 0.675 ± 0.061 |
| IQLQSNGLYSKK | 0.665 ± 0.065 |
| IQLRPFLSSPCR | 0.609 ± 0.035 |
| IQPDVILLTRFV | 0.6592 ± 0.0033 |
| IQRIPSGSGRVR | 0.736 ± 0.058 |
| IREQGQSLCKST | 0.603 ± 0.029 |
| IRETTYSRPFQL | 0.695 ± 0.05 |
| IRGGSRLPFYSS | 0.731 ± 0.013 |
| IRKDRGYETGKR | 0.6746 ± 0.0043 |
| IRLQKEGIKKIL | 0.699 ± 0.019 |
| IRPDLWYGLAVV | 0.59 ± 0.023 |
| IRPSGVVPPRAG | 0.65 ± 0.048 |
| IRPSNLRPPSYL | 0.682 ± 0.022 |
| IRQITVTICRGR | 0.639 ± 0.067 |
| IRREETKRKRNL | 0.755 ± 0.044 |
| IRRNRGLKWNVN | 0.613 ± 0.068 |
| IRRRQKYPKKKS | 0.6803 ± 0.0059 |
| IRRTNRKETRKE | 0.686 ± 0.042 |
| IRSLRWVRRESV | 0.706 ± 0.1 |
| ISDRKARSDKNK | 0.656 ± 0.071 |
| ISILPDSIGQGA | 0.687 ± 0.055 |
| ISLCSVARLGFA | 0.704 ± 0.021 |
| ISSRSMGGCWHA | 0.673 ± 0.023 |
| ISVAHIPPVYHS | 0.643 ± 0.038 |

| Sequence | protein stability index |
| --- | --- |
| ISVEELKSIKKK | 0.6296 ± 0.0019 |
| ISVPNPTRPDHP | 0.665 ± 0.063 |
| ISVSLWFRGRYY | 0.599 ± 0.034 |
| ISVSTDSPVRTW | 0.639 ± 0.023 |
| ITEYKIKLKNKE | 0.671 ± 0.023 |
| ITIRGLTGRFRQ | 0.713 ± 0.17 |
| ITKELHEGEYLY | 0.727 ± 0.0086 |
| ITKTGAAEHASL | 0.63 ± 0.037 |
| ITLSLGRQQIEL | 0.654 ± 0.013 |
| ITMYAPEVDKRR | 0.709 ± 0.017 |
| ITSSPSSPPAPP | 0.634 ± 0.0096 |
| IVEKAVAKGIKE | 0.6767 ± 0.005 |
| IVFYWLAHRPCA | 0.6297 ± 0.0059 |
| IVGGDSVSALRG | 0.643 ± 0.022 |
| IVGLLGICVGRC | 0.57 ± 0.024 |
| IVLGGPAWPVAA | 0.613 ± 0.034 |
| IVLLNLTHVRSK | 0.647 ± 0.024 |
| IVRTDTKPYEQS | 0.587 ± 0.013 |
| IVSISCPADWLD | 0.754 ± 0.034 |
| IWAEYIDAVLIN | 0.6 ± 0.061 |
| IWGLSSLYGCGW | 0.728 ± 0.011 |
| IWLVRLSCARAF | 0.5374 ± 0.0019 |
| IYSPQIPTPPVL | 0.664 ± 0.058 |
| IYTRVWPQSWLP | 0.696 ± 0.038 |
| KAGLSFSRQRGW | 0.606 ± 0.058 |

| Sequence | protein stability index |
| --- | --- |
| KAIKNKQKFKEK | 0.726 ± 0.012 |
| KAKCRNRQDEVI | 0.742 ± 0.026 |
| KALGFHGGLHRF | 0.5733 ± 0.0027 |
| KAQKKGRHSKEL | 0.712 ± 0.0059 |
| KARMEKKRKIKL | 0.728 ± 0.073 |
| KCAIKKQEQTSR | 0.642 ± 0.02 |
| KCLCSKSGSWPC | 0.685 ± 0.0078 |
| KCSSEPMCKTCR | 0.626 ± 0.053 |
| KDIVSEPKVKRE | 0.744 ± 0.012 |
| KDKGEKEKRRTK | 0.719 ± 0.077 |
| KDKRKAETKSRN | 0.688 ± 0.037 |
| KDVGKVATRRSK | 0.696 ± 0.028 |
| KEARKREHKQTN | 0.67 ± 0.094 |
| KEGSGQRRARRA | 0.686 ± 0.066 |
| KEHTKKQERTPK | 0.596 ± 0.051 |
| KEHTNKDEMPKE | 0.705 ± 0.074 |
| KEILTNNQKGQD | 0.6602 ± 0.0036 |
| KEKKNKKKKQNR | 0.701 ± 0.021 |
| KELNRRTNSPSE | 0.644 ± 0.046 |
| KENKKNDRRDII | 0.728 ± 0.023 |
| KENNWTKKKKGK | 0.655 ± 0.064 |
| KEQNKVHTQNKK | 0.755 ± 0.29 |
| KERARNTKRGSD | 0.641 ± 0.08 |
| KERLLTLHSHSH | 0.71 ± 0.037 |
| KERLQLSVNLNI | 0.628 ± 0.067 |

| Sequence | protein stability index |
| --- | --- |
| KETTEKTEIRII | 0.7 ± 0.012 |
| KEYNIKNEREEK | 0.716 ± 0.031 |
| KFNNIQNWRLAY | 0.787 ± 0.098 |
| KGCRYVGARHEG | 0.698 ± 0.017 |
| KGEGRERSRSRK | 0.768 ± 0.034 |
| KGGLLPWGPWNA | 0.743 ± 0.064 |
| KGGSVNRLSQVR | 0.6713 ± 0.00097 |
| KGHGTTCVGRQV | 0.677 ± 0.04 |
| KGICALKIATGK | 0.603 ± 0.032 |
| KGKRSRTRKPEE | 0.677 ± 0.013 |
| KGLSNGKNQIKM | 0.597 ± 0.036 |
| KGQGPAKTRTRE | 0.723 ± 0.031 |
| KGQKVAYSRHRA | 0.718 ± 0.063 |
| KGREKTKKKGTK | 0.688 ± 0.011 |
| KGTQINNRCKLK | 0.684 ± 0.078 |
| KHDIEYRTQIKK | 0.662 ± 0.033 |
| KHRIEYQEKNTF | 0.67 ± 0.019 |
| KIEHEGIKKGGT | 0.807 ± 0.14 |
| KIIKNKIKKHNK | 0.626 ± 0.018 |
| KIKERKNVKGKK | 0.685 ± 0.024 |
| KIKINKRIQNKK | 0.682 ± 0.036 |
| KIKKKRKQKGKQ | 0.722 ± 0.046 |
| KIKNNKNKKKKS | 0.693 ± 0.01 |
| KIKTIKKHKKKY | 0.713 ± 0.056 |
| KIMIRKIEIKKE | 0.69 ± 0.049 |

| Sequence | protein stability index |
| --- | --- |
| KINELGYMNLKM | 0.716 ± 0.013 |
| KIPEQRISKTKK | 0.745 ± 0.011 |
| KKAKEETSTPDC | 0.67 ± 0.034 |
| KKEISSTAGIIV | 0.637 ± 0.073 |
| KKETKLKKTEVK | 0.69 ± 0.095 |
| KKFRKGKKNKRK | 0.657 ± 0.03 |
| KKIEAKGMRNDS | 0.599 ± 0.055 |
| KKIQKKKKLIPQ | 0.7247 ± 0.0058 |
| KKIQKKTPAIDG | 0.671 ± 0.1 |
| KKIRGNSQLHPG | 0.63 ± 0.015 |
| KKITKPKSQRLV | 0.669 ± 0.014 |
| KKKEKKIKKTIK | 0.724 ± 0.048 |
| KKKEKQRQSKRR | 0.689 ± 0.026 |
| KKKGSKITKIKD | 0.699 ± 0.064 |
| KKKIRKKKVRRK | 0.649 ± 0.024 |
| KKKKKETKNAQQ | 0.685 ± 0.0077 |
| KKKKKHKKPIES | 0.666 ± 0.022 |
| KKKKKIPKKAKR | 0.666 ± 0.049 |
| KKKKKKEYTKTN | 0.718 ± 0.011 |
| KKKKKKKKEKKK | 0.726 ± 0.041 |
| KKKKKKKKKKKK | 0.6364 ± 0.00086 |
| KKKKKKKNTKTK | 0.644 ± 0.0076 |
| KKKKKKKTKKQK | 0.696 ± 0.024 |
| KKKKKKKTKKRK | 0.717 ± 0.029 |
| KKKKKKNNSKTT | 0.739 ± 0.19 |

| Sequence | protein stability index |
| --- | --- |
| KKKKKKTKNEIK | 0.643 ± 0.016 |
| KKKKKNKKENAE | 0.742 ± 0.086 |
| KKKKKNTIKKNK | 0.708 ± 0.0083 |
| KKKKKPKKQNSG | 0.6592 ± 0.0047 |
| KKKKKQKKKKGT | 0.713 ± 0.034 |
| KKKKKQRNQKAK | 0.612 ± 0.032 |
| KKKKKSKKKETR | 0.807 ± 0.11 |
| KKKKNHKRKKRN | 0.828 ± 0.041 |
| KKKKNKKKKKPK | 0.615 ± 0.041 |
| KKKKQKIRKVKK | 0.725 ± 0.084 |
| KKKKTKPKPKRM | 0.6594 ± 0.0047 |
| KKKNRKQKHKQL | 0.565 ± 0.014 |
| KKKQKKERKKTK | 0.649 ± 0.042 |
| KKKRKDKTKIDK | 0.658 ± 0.057 |
| KKKRKKKNRGKK | 0.6789 ± 0.004 |
| KKKTKTQTGKKS | 0.744 ± 0.016 |
| KKKTRIYKRQKR | 0.655 ± 0.077 |
| KKLGLINITIRV | 0.535 ± 0.017 |
| KKLNTYISQIEQ | 0.707 ± 0.0079 |
| KKMKSKTKEINK | 0.698 ± 0.035 |
| KKMKVEKGITQK | 0.775 ± 0.068 |
